Assay results taken from patent publication US20260091061A1 (LEGEND BIOTECH IRELAND, published 2026).

T1: mouse GCC (mouse, UniProt Q3UWA6 20-1072)
T1 construct: whole, on cells; also called mGCC; HEK293T.mGCC.Luc cells
T1 sequence (looked up): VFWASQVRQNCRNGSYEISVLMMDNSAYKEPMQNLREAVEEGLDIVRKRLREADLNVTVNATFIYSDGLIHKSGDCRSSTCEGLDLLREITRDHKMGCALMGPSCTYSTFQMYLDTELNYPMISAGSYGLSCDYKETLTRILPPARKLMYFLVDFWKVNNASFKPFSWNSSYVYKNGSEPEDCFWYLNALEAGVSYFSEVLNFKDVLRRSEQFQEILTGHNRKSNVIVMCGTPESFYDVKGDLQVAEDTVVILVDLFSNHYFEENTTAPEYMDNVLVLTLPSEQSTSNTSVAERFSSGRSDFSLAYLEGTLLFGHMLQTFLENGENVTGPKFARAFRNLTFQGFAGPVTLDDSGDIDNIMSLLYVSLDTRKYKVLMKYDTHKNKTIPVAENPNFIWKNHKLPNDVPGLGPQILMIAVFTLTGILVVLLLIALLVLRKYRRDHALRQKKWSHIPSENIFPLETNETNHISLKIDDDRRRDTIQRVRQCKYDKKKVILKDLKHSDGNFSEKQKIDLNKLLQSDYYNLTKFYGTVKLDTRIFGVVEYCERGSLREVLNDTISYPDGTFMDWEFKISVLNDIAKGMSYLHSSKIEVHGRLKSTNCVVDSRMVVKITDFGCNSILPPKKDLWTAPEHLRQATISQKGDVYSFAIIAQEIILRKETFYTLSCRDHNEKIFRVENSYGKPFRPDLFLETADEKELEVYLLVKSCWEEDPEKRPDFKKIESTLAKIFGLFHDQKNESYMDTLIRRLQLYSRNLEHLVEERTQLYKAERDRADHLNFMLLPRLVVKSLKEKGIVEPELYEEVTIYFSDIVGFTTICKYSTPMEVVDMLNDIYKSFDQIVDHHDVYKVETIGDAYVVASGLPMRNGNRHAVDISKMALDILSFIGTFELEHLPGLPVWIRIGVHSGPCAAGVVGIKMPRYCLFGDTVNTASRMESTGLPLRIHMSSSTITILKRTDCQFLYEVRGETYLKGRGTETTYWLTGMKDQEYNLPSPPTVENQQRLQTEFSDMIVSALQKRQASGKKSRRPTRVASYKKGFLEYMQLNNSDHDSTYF


Columns and labels:
[1] = target: T2, huGCC-his (human, UniProt P25092 24-430, limits assumed); assay: SPR, Biacore T200; antibody captured via Fc, GCC as analyte; 1:1 model
T2 construct: Soluble his-tagged human GCC used as analyte on Biacore; also called GCC (SPR analyte); not shown: his tag
T2 sequence (P25092 24-430 limits assumed): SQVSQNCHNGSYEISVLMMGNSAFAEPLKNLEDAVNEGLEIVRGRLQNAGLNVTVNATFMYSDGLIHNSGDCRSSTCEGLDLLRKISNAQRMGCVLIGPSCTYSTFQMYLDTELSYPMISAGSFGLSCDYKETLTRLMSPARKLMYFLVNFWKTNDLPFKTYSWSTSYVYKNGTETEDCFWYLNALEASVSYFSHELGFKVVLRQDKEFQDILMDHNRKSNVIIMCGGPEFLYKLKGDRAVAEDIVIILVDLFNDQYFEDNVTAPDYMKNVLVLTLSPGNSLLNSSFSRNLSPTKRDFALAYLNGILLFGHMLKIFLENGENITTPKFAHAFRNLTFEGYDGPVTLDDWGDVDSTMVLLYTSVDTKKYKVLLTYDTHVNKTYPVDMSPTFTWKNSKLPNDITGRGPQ

[2] = target: T3, human GCC (human, UniProt P25092 24-1073); assay: screen of clone supernatants: cell based ELISA on HEK293T.huGCC.Luc cells and ELISA on recombinant human GCC protein (ACRO GUC-H52H5)
T3 construct: whole, on cells; also called huGCC; Guanylyl cyclase C
T3 sequence (P25092 24-1073): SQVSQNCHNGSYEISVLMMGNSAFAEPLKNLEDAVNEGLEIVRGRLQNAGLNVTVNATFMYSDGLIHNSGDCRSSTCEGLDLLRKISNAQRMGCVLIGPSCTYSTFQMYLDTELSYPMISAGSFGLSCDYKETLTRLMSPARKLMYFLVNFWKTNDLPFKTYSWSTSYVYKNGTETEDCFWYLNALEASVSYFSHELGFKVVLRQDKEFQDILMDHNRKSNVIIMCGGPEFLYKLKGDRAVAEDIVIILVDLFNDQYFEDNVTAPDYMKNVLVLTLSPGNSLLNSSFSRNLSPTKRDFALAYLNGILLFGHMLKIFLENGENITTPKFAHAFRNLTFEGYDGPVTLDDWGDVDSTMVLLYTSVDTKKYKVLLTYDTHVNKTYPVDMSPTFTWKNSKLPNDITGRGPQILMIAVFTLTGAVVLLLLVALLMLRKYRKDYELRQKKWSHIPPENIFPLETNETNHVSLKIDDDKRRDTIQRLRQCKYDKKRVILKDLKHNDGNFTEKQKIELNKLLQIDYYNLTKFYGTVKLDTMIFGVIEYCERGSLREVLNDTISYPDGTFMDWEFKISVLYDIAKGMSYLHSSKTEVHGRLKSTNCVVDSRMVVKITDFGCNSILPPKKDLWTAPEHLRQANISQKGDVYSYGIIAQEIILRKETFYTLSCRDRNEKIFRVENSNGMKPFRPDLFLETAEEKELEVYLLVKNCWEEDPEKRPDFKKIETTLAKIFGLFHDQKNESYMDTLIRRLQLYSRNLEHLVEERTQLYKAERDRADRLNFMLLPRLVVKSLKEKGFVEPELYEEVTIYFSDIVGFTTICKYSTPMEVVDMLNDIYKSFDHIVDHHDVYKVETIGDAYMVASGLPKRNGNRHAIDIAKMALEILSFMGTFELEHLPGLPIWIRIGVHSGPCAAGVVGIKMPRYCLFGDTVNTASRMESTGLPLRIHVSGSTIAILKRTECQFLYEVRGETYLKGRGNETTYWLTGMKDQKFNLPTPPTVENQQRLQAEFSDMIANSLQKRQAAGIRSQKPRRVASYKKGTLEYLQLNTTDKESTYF

[3] = target: T3, human GCC; assay: flow cytometry on HEK293T.huGCC.Luc cells, percentage of binding
[4] = target: T1, mouse GCC; assay: flow cytometry on HEK293T.mGCC.Luc cells, PE goat anti-mouse IgG secondary; Binding % = cells with antibody bound / total cells

Binder	binding result [2]	other results
VHHC0708H2-mIgG1Fc (Fc fusion, also called humanized chimeric antibody VHHC0708H2-mIgG1Fc) EVQLVESGGGVVQPGGSLRLSCAASGYTYSRYCMGWVRQAPGKEREGVALIASDGTTTYADSVKGRFTISQDNSKNTLYLQMNSLRAEDTAVYYCAADAVNWYGSICASMIRRKNPAFGYWGQGTLVTVSSVPRDCGCKPCICTVPEVSSVFIFPPKPKDVLTITLTPKVTCVVVDISKDDPEVQFSWFVDDVEVHTAQTQPREEQFNSTFRSVSELPIMHQDWLNGKEFKCRVNSAAFPAPIEKTISKTKGRPKAPQVYTIPPPKEQMAKDKVSLTCMITDFFPEDITVEWQWNGQPAENYKNTQPIMNTNGSYFVYSKLNVQKSNWEAGNTFTCSVLHEGLHNHHTEKSLSHSPGK		Kd [1]: 1.02 nM
VHHC0806 (VHH, Screened as E. coli culture supernatant and detected with an anti-cmyc antibody) VHH: QVHLVESGGGSVQSGGSLRLSCAGSGYTYSTHCMGWFRQAPGKERERVATIDKDGRTSHYADAVKGRFTISQDNAKNTLYLQMSSLNPEDTAMYYCAAAEHRGAWCPLWDRSAPLLAHIHWGQGTQVTVSS	binds	
VHHA2322H2-mIgG1Fc (Fc fusion, also called humanized chimeric antibody VHHA2322H2-mIgG1Fc) QVHLVESGGGVVQPGRSLRLSCAASGYTGRRLCRGWFRQAPGKEREGVATITLSGRASYADSVKGRFTISQDNSKNTLYLQMNSLRAEDTAVYFCAEVRSADAEWLNPLKCHPDRLGLAGVDWGQGTTVTVSSVPRDCGCKPCICTVPEVSSVFIFPPKPKDVLTITLTPKVTCVVVDISKDDPEVQFSWFVDDVEVHTAQTQPREEQFNSTFRSVSELPIMHQDWLNGKEFKCRVNSAAFPAPIEKTISKTKGRPKAPQVYTIPPPKEQMAKDKVSLTCMITDFFPEDITVEWQWNGQPAENYKNTQPIMNTNGSYFVYSKLNVQKSNWEAGNTFTCSVLHEGLHNHHTEKSLSHSPGK		EC50 [3]: 0.0192 nM; Kd [1]: 1.65 nM; binding result [4]: no binding (tested: 1000 nM)
VHHC0464 (VHH, Screened as E. coli culture supernatant and detected with an anti-cmyc antibody) VHH: QVQLQESGGGLVQAGGSLRLSCLASGLAFPSYAMGWFRQAPGKEREWVSCVTRSGGDTLYADSAKGRFAISRDNAKNTLYLQMNSLKPEDTAMYYCAAALFCANLRRNKDNYWGQGTQVTVSS	binds	
VHHC0694H2-mIgG1Fc (Fc fusion, also called humanized chimeric antibody VHHC0694H2-mIgG1Fc) QVQLVESGGGVVQPGRSLRLSCAASGYTYSRYCMAWFRQAPGKEREGVAVIDPDGSTTYADSVKGRFTISQDNSKNTLYLQMNSLRAEDTAVYYCAADPRVWYGGTCRAGRTDFSNWGQGTMVTVSSVPRDCGCKPCICTVPEVSSVFIFPPKPKDVLTITLTPKVTCVVVDISKDDPEVQFSWFVDDVEVHTAQTQPREEQFNSTFRSVSELPIMHQDWLNGKEFKCRVNSAAFPAPIEKTISKTKGRPKAPQVYTIPPPKEQMAKDKVSLTCMITDFFPEDITVEWQWNGQPAENYKNTQPIMNTNGSYFVYSKLNVQKSNWEAGNTFTCSVLHEGLHNHHTEKSLSHSPGK		EC50 [3]: 0.0315 nM; Kd [1]: 1.34 nM; binding result [4]: no binding (tested: 1000 nM)
VHHC0524 (VHH, Screened as E. coli culture supernatant and detected with an anti-cmyc antibody) VHH: QVQLAESGGGSVQSGGSLRLSCAASGYTYSRYCMAWFRQAPGKEREGVAVIVSDNDGSATYADSVKGRFTISQDNAKNMLYLQMNSLKPEDTAMYYCAADPRVWYGGTCRAGRTDFLYWGQGTQVTVSS	binds	
VHHA2322 (VHH, Screened as E. coli culture supernatant and detected with an anti-cmyc antibody) VHH: QVHLVESGGGSVQSGGSLRLSCAASGYTGRRLCRGWFRQTPGKEREGVATITLSGRASYADSVKGRFTISQDNAKNTLYLQMNGLKPEDTAMYFCAEVRSADAEWLNPLKCHPDRLGLAGVDWGQGTQVTVSS	binds	

Further lines, with some results ahead:

binding result [2]	Binder	other results
binds	VHHC0694 (VHH, Screened as E. coli culture supernatant and detected with an anti-cmyc antibody) VHH: QVQLVESGGGSVQSGGSLRLSCAASGYTYSRYCMAWFRQAPGKEREGVAVIDPDGSTTYADSVKGRFTISQDNAKNTLYLQMNSLKPEDTAMYYCAADPRVWYGGTCRAGRTDFSNWGQGTQVTVSS	
binds	VHHC0467 (VHH, Screened as E. coli culture supernatant and detected with an anti-cmyc antibody) VHH: QMQLVESGGGLVQAGGSLRLSCIASGLTFPTYAMGWFRQAPGKEREWVSCVTRSGGDTLYADSAKGRFTISRDNAKNTLFLQMNSLKPEDTAMYYCVAALFCHNLRLNTGNYWGQGTQVTVSS	
binds	VHHC0494 (VHH, Screened as E. coli culture supernatant and detected with an anti-cmyc antibody) VHH: QVHLVESGGGSVQSGGSLRLSCATSASPYSMHCMGWFRQAPGKARERVASILNAGSTTYADSVKGRFTISRDNAEKTLYLQMNSLKPEDTGTYYCAARPDAGRWRSACTTELDFGYWGQGTQVTVSS	
binds	VHHA2493 (VHH, Screened as E. coli culture supernatant and detected with an anti-cmyc antibody) VHH: QMQLVESGGGSVQSGGSLRLSCATNEPPYSIYCMAWFRQAPGKARERVAAILNAGGTRYADSVKGRFTISRDNAAKTFALQMNSLKPEDTGTYYCATRADAGRWGSACTTELDFGNWGQGTQVTVSS	
binds	VHHC0708 (VHH, Screened as E. coli culture supernatant and detected with an anti-cmyc antibody) VHH: QVQLEESGGGSVQSGGSLRLSCAASGYTYSRYCMGWVRQAPGKEREGVALIASDGTTTYADSVKGRFTISQDNAKNTLYLQMNSLKPEDTAMYYCAADAVNWYGSICASMIRRKNPAFGYWGRGTQVTVSS	
